Measurements taken from patent publication US7005258 (NATIONAL INSTITUTES OF HEALTH, dated 2006).

Target: T1, human cdc2 (p34^cdc2, endogenous, HeLa cells) (human, UniProt P06493 1-297)
T1 construct: On p13 beads it is present as cdc2/cyclin B; also called p34^cdc2 kinase
Assay: precipitation on p13 beads from HeLa lysate

T1 sequence (P06493 whole entry): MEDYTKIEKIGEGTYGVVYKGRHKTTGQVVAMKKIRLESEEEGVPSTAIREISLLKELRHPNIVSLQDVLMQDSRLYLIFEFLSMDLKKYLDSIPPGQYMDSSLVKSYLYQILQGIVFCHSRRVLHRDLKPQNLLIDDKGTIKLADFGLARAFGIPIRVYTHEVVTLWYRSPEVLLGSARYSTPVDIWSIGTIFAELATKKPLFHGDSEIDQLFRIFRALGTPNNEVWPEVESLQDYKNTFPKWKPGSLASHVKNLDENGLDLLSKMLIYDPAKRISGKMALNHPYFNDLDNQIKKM

B1: p13 protein encoded by the suc1 gene (other, fission yeast, UniProt P08463 1-113, looked up)
chain: MSKSGVPRLLTASERERLEPFIDQIHYSPRYADDEYEYRHVMLPKAMLKAIPTDYFNPETGTLRILQEEEWRGLGITQSLGWEMYEVHVPEPHILLFKREKDYQMKFSQQRGG
notes: also called p13-Suc1; p13 (Sucl)
binding result: binds
